Laboratory results from article PMC6202311, “Substrate Recognition and Autoinhibition in the Central Ribonuclease RNase E”.

Target: RNase E NTD D303R D346R (Escherichia coli, UniProt P21513 1-529, D303R;D346R)
Test: crystal structure (3.0 A); Mg2+, Zn2+; BLI: 25 mM HEPES pH 7.0, 150 mM NaCl, 100 mM KCl, 10 mM CaCl2, 0.5 mM TCEP; RNA immobilised on streptavidin sensors, protein 0-500 nM; temperature not stated
Conditions: protein: recombinant; tags: N-terminal His; chain copies: 4; hairpin, 3' single-stranded tail

Binder: GUUAUAUGCCUUCUUGGAGGUAUAUAACAAAGAC (structured_RNA, 5' monophosphate; 2'-O-methyl on A33 and C34 (ompD +82, +83)) [MicC-ompD fusion]
- binding result: binds
